For test [1], the target named is human SNAP_GLP1R on CHO-K1 cells (human) (UniProt P43220).
Test [2] has as its target SNAP_GLP1R on YFP-AD293 cells (human) (UniProt P43220).
For test [3] the target is unchanged. The experiment in a line: fluorescent ligand labelling of cells.

Chain of human SNAP_GLP1R on CHO-K1 cells (human) (P43220 24-463): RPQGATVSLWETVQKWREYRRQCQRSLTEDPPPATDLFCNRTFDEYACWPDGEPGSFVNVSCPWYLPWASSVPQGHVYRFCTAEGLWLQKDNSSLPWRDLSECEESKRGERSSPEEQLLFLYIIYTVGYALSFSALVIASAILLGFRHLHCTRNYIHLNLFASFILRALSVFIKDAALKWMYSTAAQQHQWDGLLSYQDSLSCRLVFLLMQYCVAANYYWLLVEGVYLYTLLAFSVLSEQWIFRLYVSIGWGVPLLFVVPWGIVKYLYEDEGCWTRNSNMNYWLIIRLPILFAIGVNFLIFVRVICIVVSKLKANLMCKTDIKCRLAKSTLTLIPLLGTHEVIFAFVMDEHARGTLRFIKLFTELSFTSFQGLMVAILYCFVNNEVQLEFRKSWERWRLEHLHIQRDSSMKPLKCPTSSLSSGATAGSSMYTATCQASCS
Chain of SNAP_GLP1R on YFP-AD293 cells (human) (P43220 24-463): as above

On to Exendin4(9-39) (peptide), for which the block of GLP-1-induced cAMP production through GLP1R (cAMP-Glo) in test [1] is 38.4 nM.

In test [2], LUXendin555 (peptide) returned a cAMP production (cAMP-Glo) of 130 nM and a cAMP production (cAMP-Glo) with the positive allosteric modulator BETP of 28.4 nM.

In test [1], LUXendin645 (peptide) had a block of GLP-1-induced cAMP production through GLP1R (cAMP-Glo) of 73.1 nM and a cAMP production (cAMP-Glo) with the positive allosteric modulator BETP of 9.3 nM. This substance returned a concentration at maximum labeling in test [3] of 100 nM.

In turn, S39C-Exendin4(9-39) (peptide) yielded a block of GLP-1-induced cAMP production through GLP1R (cAMP-Glo) in test [1] of 34.8 nM.

The values above are taken from doi:10.1101/557132.
